A word on the Kd: it is the equilibrium constant for the complex coming apart.

This assay has as its target T1, GluR1 carboxy‐terminal region (SPR).
T1 chain: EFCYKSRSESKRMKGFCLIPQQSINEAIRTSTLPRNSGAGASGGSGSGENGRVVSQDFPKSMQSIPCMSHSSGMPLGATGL
The assay can be described thus: SPR. (In general: In SPR one partner is held on a chip, and binding of the other changes the refractive index at the surface.)

B1: full‐length CIRP protein (SPR) (natural protein)
chain: MASDEGKLFVGGLSFDTNEQALEQVFSKYGQISEVVVVKDRETQRSRGFGFVTFENIDDAKDAMMAMNGKSVDGRQIRVDQAGKSSDNRSRGYRGGSAGGRGFFRGGRSRGRGFSRGGGDRGYGGGRFESRSGGYGGSRDYYASRSQGGSYGYRSSGGSYRDSYDSYATHNE
B1: binding was put at a Kd of 1010 nM.

(Values after article PMC11420629 (2024).)
